Key:
MULTIMERIN2 [1] = molecular target: T1, MULTIMERIN2 (UniProt Q9H8L6 23-949, glycosylated (carbohydrate chains)); test: SPR; Biacore X100, CM5 chip; MMRN2 immobilised by amine coupling (3150 RU); cytokines in HBS-EP buffer (150 mM NaCl), 30 μL/min, 60 seconds of contact
T1 construct: MULTIMERIN2 (MMRN2), the whole recombinant His-tagged molecule; also called MMRN2; the whole molecule; source: 293-EBNA cells, purified from serum-free medium (Ni-NTA resin)
T1 sequence (looked up): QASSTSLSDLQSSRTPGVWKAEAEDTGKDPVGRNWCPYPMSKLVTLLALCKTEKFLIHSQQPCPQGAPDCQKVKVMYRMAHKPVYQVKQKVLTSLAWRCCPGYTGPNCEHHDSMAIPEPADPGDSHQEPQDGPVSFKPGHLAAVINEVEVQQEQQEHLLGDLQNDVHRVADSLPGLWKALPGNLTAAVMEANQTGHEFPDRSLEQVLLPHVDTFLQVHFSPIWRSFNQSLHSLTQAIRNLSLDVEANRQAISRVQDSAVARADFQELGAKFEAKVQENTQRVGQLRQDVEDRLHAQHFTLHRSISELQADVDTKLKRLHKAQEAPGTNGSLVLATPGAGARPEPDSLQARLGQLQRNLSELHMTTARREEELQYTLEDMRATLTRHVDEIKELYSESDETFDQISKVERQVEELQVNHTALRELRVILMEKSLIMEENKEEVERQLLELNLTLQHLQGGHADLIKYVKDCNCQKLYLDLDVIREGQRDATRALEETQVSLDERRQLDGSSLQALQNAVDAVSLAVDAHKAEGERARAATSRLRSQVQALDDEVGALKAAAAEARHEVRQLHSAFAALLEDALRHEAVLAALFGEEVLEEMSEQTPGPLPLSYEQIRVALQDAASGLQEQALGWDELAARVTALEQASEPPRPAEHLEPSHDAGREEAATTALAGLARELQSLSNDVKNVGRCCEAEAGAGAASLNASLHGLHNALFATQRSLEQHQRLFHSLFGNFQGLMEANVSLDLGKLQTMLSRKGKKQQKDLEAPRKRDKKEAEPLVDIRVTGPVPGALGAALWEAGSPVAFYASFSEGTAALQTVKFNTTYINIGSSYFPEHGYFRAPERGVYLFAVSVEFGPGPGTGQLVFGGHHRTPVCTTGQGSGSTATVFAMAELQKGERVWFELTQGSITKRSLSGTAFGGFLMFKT

MULTIMERIN2 [2] = molecular target: T1, MULTIMERIN2; test: SPR; Biacore X100, CM5 chip; MMRN2 immobilised by amine coupling; NaCl concentration of 300 mM instead of 150 mM
MMRN2 Δ2 deletion mutant = MMRN2 Δ2 deletion mutant (UniProt Q9H8L6); test: SPR; Biacore X100, CM5 chip; Δ2 fragment immobilised by amine coupling (1770 RU); VEGF-A165 in HBS-EP buffer, 30 μL/min, 60 seconds of contact

## VEGF-C (from UniProt P49767 112-227) (ligand)
MULTIMERIN2 [1]
  Kd: 750 nM

## VEGF-A145 (ligand)
MULTIMERIN2 [2]
  Kd: 27 nM

## PlGF-1 (from UniProt P49763-2 19-149) (ligand)
MULTIMERIN2 [1]
  Kd: 560 nM

## VEGF-A121 (ligand)
MULTIMERIN2 [1]
  Kd: 200 nM

## VEGF-A189 (ligand)
MULTIMERIN2 [2]
  Kd: 3 nM

## VEGF-A165 (ligand)
MMRN2 Δ2 deletion mutant
  Kd: 430 nM

B1: VEGF-D (ligand, UniProt O43915 89-205, looked up)
chain: FAATFYDIETLKVIDEEWQRTQCSPRETCVEVASELGKSTNTFFKPPCVNVFRCGGCCNEESLICMNTSTSYISKQLFEISVPLTSVPELVPVKVANHTGCKCLPTAPRHPYSIIRR
notes: vascular endothelial growth factor D; Commercial VEGF-D is usually the processed VEGF homology domain, not the whole precursor; source: bought: Peprotech
MULTIMERIN2 [1]; both partners purified
  Kd: 640 nM

— publication PMC4811514, “MULTIMERIN2 binds VEGF-A primarily via the carbohydrate chains exerting an angiostatic function and impairing tumor growth” (Oncotarget, 2015)
